Measurements as given in the supplement of paper PMC9112550, “Optimization of the antimicrobial peptide Bac7 by deep mutational scanning” (BMC Biology, 2022).

tested on: Escherichia coli TOP10; test: shrunken log2 fold change of peptide-encoding DNA abundance (4.5 h post-induction vs induction); higher = less antimicrobial activity (less host growth inhibition); details: time post-induction: 4.5 h; library: site-saturation at positions 5, 18, 19, 20
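Further: peptides expressed intracellularly from a pBAD plasmid library in pooled LB shake-flask culture, induced with 0.3% L-arabinose, DNA abundance read by NGS, three biological replicates, DESeq2 with apeglm shrinkage.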

Sequence | shrunken log2 fold change
RRIRPRPPRLPRPRPRPRFHPRP | -0.108
RRIRDRPPRLPRPRPRPCHCPRP | -0.158
RRIRCRPPRLPRPRPRPEQFPRP | 0.0372
RRIRFRPPRLPRPRPRPDHFPRP | -0.331
RRIRTRPPRLPRPRPRPSADPRP | -0.0419
RRIRNRPPRLPRPRPRPMYDPRP | 0.0456
RRIRKRPPRLPRPRPRPNMHPRP | 0.19
RRIRARPPRLPRPRPRPFYMPRP | -0.45
RRIRFRPPRLPRPRPRPMMWPRP | -0.011
RRIRGRPPRLPRPRPRPQTWPRP | 0.0175
RRIRQRPPRLPRPRPRPFRYPRP | -0.245
RRIRCRPPRLPRPRPRPYMVPRP | -0.462
RRIRCRPPRLPRPRPRPCPFPRP | -0.332
RRIRNRPPRLPRPRPRPCFHPRP | -0.503
RRIRERPPRLPRPRPRPMMPPRP | 0.0391
RRIRFRPPRLPRPRPRPMFNPRP | -0.797
RRIRYRPPRLPRPRPRPSDLPRP | -1.92
RRIRWRPPRLPRPRPRPLTHPRP | -0.00362
RRIRARPPRLPRPRPRPHNYPRP | -0.303
RRIRARPPRLPRPRPRPYKTPRP | -0.0275
RRIRERPPRLPRPRPRPLARPRP | 0.179
RRIRLRPPRLPRPRPRPYAIPRP | -0.233

Sequence | shrunken log2 fold change
RRIRTRPPRLPRPRPRPKHRPRP | -0.191
RRIRYRPPRLPRPRPRPLMIPRP | -1.73
RRIRQRPPRLPRPRPRPTECPRP | 0.0119
RRIRPRPPRLPRPRPRPRKQPRP | 0.0406
RRIRPRPPRLPRPRPRPYWCPRP | -0.272
RRIRHRPPRLPRPRPRPYGDPRP | -0.808
RRIRKRPPRLPRPRPRPTTSPRP | 0.321
RRIRCRPPRLPRPRPRPPRMPRP | 0.671
RRIRMRPPRLPRPRPRPCAVPRP | 0.296
RRIRRRPPRLPRPRPRPATGPRP | 0.222
RRIRPRPPRLPRPRPRPMHEPRP | 0.297
RRIRHRPPRLPRPRPRPVPIPRP | 0.0935
RRIRTRPPRLPRPRPRPWIGPRP | -0.233
RRIRYRPPRLPRPRPRPQWHPRP | -0.638
RRIRSRPPRLPRPRPRPLPQPRP | 0.461
RRIRTRPPRLPRPRPRPKHVPRP | -0.658
RRIRPRPPRLPRPRPRPDHQPRP | -0.0869
RRIRMRPPRLPRPRPRPCSIPRP | -0.0306
RRIRPRPPRLPRPRPRPFLCPRP | -0.0669
RRIRKRPPRLPRPRPRPNGPPRP | -0.00695
RRIRKRPPRLPRPRPRPKFFPRP | 0.219
RRIRKRPPRLPRPRPRPYMDPRP | -0.763

Sequence | shrunken log2 fold change
RRIRARPPRLPRPRPRPFMWPRP | 0.065
RRIRNRPPRLPRPRPRPRAMPRP | 0.37
RRIRVRPPRLPRPRPRPYIPPRP | -1
RRIRDRPPRLPRPRPRPHRRPRP | -0.247
RRIRKRPPRLPRPRPRPHCWPRP | 0.17
RRIRMRPPRLPRPRPRPGYDPRP | 0.0865
RRIRLRPPRLPRPRPRPSKTPRP | -0.258
RRIRMRPPRLPRPRPRPMNHPRP | -0.129
RRIRTRPPRLPRPRPRPKCVPRP | -0.138
RRIRTRPPRLPRPRPRPDIEPRP | -0.117
RRIRSRPPRLPRPRPRPLNWPRP | -0.0815
RRIRCRPPRLPRPRPRPPLTPRP | 0.578
RRIRPRPPRLPRPRPRPSCLPRP | -0.317
RRIRQRPPRLPRPRPRPDERPRP | -0.00664
RRIRGRPPRLPRPRPRPGVCPRP | 0.892
RRIRYRPPRLPRPRPRPKSCPRP | -0.0262
RRIRVRPPRLPRPRPRPHKHPRP | -0.483
RRIRIRPPRLPRPRPRPEQNPRP | -0.204
RRIRIRPPRLPRPRPRPNDFPRP | -0.276
RRIRWRPPRLPRPRPRPEIHPRP | -0.0167
RRIRDRPPRLPRPRPRPYGRPRP | -0.0901
RRIRKRPPRLPRPRPRPSNGPRP | -0.00174

Sequence | shrunken log2 fold change
RRIRVRPPRLPRPRPRPCMQPRP | 0.162
RRIRSRPPRLPRPRPRPKYMPRP | -0.677
RRIRMRPPRLPRPRPRPHMEPRP | -0.0461
RRIRRRPPRLPRPRPRPMWYPRP | 0.0371
RRIRERPPRLPRPRPRPSPDPRP | -0.185
RRIRLRPPRLPRPRPRPAGLPRP | 0.102
RRIRRRPPRLPRPRPRPSRRPRP | -0.0701
RRIRSRPPRLPRPRPRPSFWPRP | 0.079
RRIRVRPPRLPRPRPRPGQNPRP | -0.104
RRIRGRPPRLPRPRPRPIYYPRP | -0.197
RRIRERPPRLPRPRPRPFNHPRP | -1.01
RRIRFRPPRLPRPRPRPNERPRP | 0.047
RRIRMRPPRLPRPRPRPTYEPRP | -0.16
RRIRTRPPRLPRPRPRPCQSPRP | 0.183
RRIRGRPPRLPRPRPRPCFHPRP | -0.011
RRIRKRPPRLPRPRPRPYQVPRP | 0.0805
RRIRTRPPRLPRPRPRPEYAPRP | -0.00931
RRIRLRPPRLPRPRPRPSCLPRP | -0.392
RRIRGRPPRLPRPRPRPLHCPRP | 0.188
RRIRWRPPRLPRPRPRPYTGPRP | -0.135
RRIRTRPPRLPRPRPRPGFFPRP | 0.147
RRIRMRPPRLPRPRPRPMPYPRP | 0.018

Sequence | shrunken log2 fold change
RRIRDRPPRLPRPRPRPLMTPRP | 0.195
RRIRARPPRLPRPRPRPMYSPRP | -0.08
RRIRERPPRLPRPRPRPIMHPRP | -0.462
RRIRQRPPRLPRPRPRPPCQPRP | 0.0396
RRIRPRPPRLPRPRPRPCNVPRP | -0.314
RRIRKRPPRLPRPRPRPNQQPRP | 0.101
RRIRQRPPRLPRPRPRPMMRPRP | 0.109
RRIRSRPPRLPRPRPRPMVDPRP | 0.197
RRIRKRPPRLPRPRPRPYDGPRP | -0.0976
RRIRSRPPRLPRPRPRPDIHPRP | -1.3
RRIRERPPRLPRPRPRPTFYPRP | -0.18
RRIRERPPRLPRPRPRPKAPPRP | 0.124
RRIRGRPPRLPRPRPRPKDQPRP | 0.843
RRIRPRPPRLPRPRPRPGVFPRP | 0.144
RRIRFRPPRLPRPRPRPPMNPRP | -0.0762
RRIRLRPPRLPRPRPRPCILPRP | -0.411
RRIRRRPPRLPRPRPRPQKTPRP | -0.019
RRIRIRPPRLPRPRPRPDIIPRP | -0.0935
RRIRERPPRLPRPRPRPYALPRP | -0.000856
RRIRKRPPRLPRPRPRPVYHPRP | 0.0002
RRIRTRPPRLPRPRPRPSGLPRP | -0.573
